Consider one molecule from patent US20030235900A1.

The assay has as its target Strep-Tactin Macroprep resin (Cat. No. 2-1505-010; IBA GmbH). Briefly: batch binding to Strep-Tactin Macroprep resin, 1 hour in cold room; binding followed by MTSP10 activity left in the supernatant.

B1: MTSP10-ST2 C122S (protease domain of human MTSP10, C122S mutant, with C-terminal Strep-tag II, expressed in Pichia pastoris) (enzyme)
chain: RIIGGTDTLEGGWPWQVSLHFVGSAYCGASVISREWLLSAAHCFHGNRLSDPTPWTAHLGMYVQGNAKFVSPVRRIVVHEYYNSQTFDYDIALLQLSIAWPETLKQLIQPISIPPTGQRVRSGEKCWVTGWGRRHEADNKGSLVLQQAEVELIDQTLCVSTYGIITSRMLCAGIMSGKRDACKGDSGGPLSCRRKSDGKWILTGIVSWGHGCGRPNFPGVYTRVSNFVPWIGGWSHPQFEK
With B1, the percent of activity retained by the resin lay within 50 to 70%.
